Experimental data: PMC3085397 (Immunity, 2011)

Target: the molecule itself
Experiment: SEC-MALS

Protein | binding result | stoichiometry N
FOXP3 forkhead domain F373A (IPEX mutation) (domain or fragment, human) MRPPFTYATLIRWAILEAPEKQRTLNEIYHWFTRMFAAFRNHPATWKNAIRHNLSLHKCFVRVESEKGAVWTVDELEFRKKR | binds | –
FOXP3 forkhead domain F371C (IPEX mutation) (domain or fragment, human) MRPPFTYATLIRWAILEAPEKQRTLNEIYHWFTRMCAFFRNHPATWKNAIRHNLSLHKCFVRVESEKGAVWTVDELEFRKKR | – | 2
FOXP3 forkhead domain double mutant (W348Q and M370T) (domain or fragment, human) MRPPFTYATLIRQAILEAPEKQRTLNEIYHWFTRTFAFFRNHPATWKNAIRHNLSLHKCFVRVESEKGAVWTVDELEFRKKR | binds | –
